Data from patent US20210162011A1.

Molecular target: leptin receptor (LepRb), expressed on transfected HEK293 cells
Experiment: cell-based or functional assay

Substance: recombinant mouse Batotin protein (76 aa) with a six-amino-acid His tag at its C-terminus (from UniProt Q8K1L6 1-76) (ligand)
- cells with a p-STAT3 positive nucleus after leptin, immunofluorescence: < 10%

Substance: leptin (ligand)
- cells with a p-STAT3 positive nucleus, immunofluorescence: > 80%

Substance: recombinant human Batotin protein with a six-amino-acid His tag at its C-terminus (from UniProt Q96GX8 1-76) (ligand)
- cells with a p-STAT3 positive nucleus after leptin, immunofluorescence: < 10%
